Assay results: the supplement of paper PMC11316812
± gives the standard deviation of the averaged measurements.

What was measured:
[1] = test system: MCF7; assay: percentage of EdU-negative (G0-arrested) nuclei per well, 72 h; higher = more G0 arrest; details: reference: sequence is the full UniProt precursor, the tested protein was the secreted form or ectodomain
[2] = test system: hTERT-HMEC; assay: as above; details: reference: sequence is the full UniProt precursor, the tested protein was the secreted form or ectodomain
[3] = protein concentration 0.0225 µM
[4] = protein concentration 0.02125 µM
[5] = protein concentration 0.2125 µM
[6] = protein concentration 0.012015 µM
[7] = protein concentration 0.12015 µM
[8] = protein concentration 0.0182857 µM
[9] = protein concentration 0.182857 µM
[10] = protein concentration 0.02075 µM
[11] = protein concentration 0.2075 µM
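Further: secreted proteins added to cultured cells, EdU pulse at the end, nuclei found by Hoechst imaging, EdU status from nuclear versus surrounding ring intensity ratio, PBS as neutral control.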

Sequence of Q9UBP4 (chain, as listed by the source): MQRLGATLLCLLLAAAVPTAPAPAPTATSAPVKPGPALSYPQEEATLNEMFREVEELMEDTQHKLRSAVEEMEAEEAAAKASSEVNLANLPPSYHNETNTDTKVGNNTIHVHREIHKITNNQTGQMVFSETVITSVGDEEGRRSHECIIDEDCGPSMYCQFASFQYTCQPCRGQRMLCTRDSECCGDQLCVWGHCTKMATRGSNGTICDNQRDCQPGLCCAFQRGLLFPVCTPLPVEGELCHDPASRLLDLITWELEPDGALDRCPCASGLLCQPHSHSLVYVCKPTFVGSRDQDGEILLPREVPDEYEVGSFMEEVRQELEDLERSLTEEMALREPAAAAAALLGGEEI

Row | Substance | percentage of EdU-negative [1, 3] | percentage of EdU-negative ([1]; protein concentration 0.225 µM) | percentage of EdU-negative [2, 3] | percentage of EdU-negative ([2]; protein concentration 0.225 µM) | further results
1 | MNLAISIALLLTVLQVSRGQKVTSLTACLVDQSLRLDCRHENTSSSPIQYEFSLTRETKKHVLFGTVGVPEHTYRSRTNFTSKYNMKVLYLSAFTSKDEGTYTCALHHSGHSPPISSQNVTVLRDKLVKCEGISLLAQNTSWLLLLLLSLSLLQATDFMSL | 27.7 ± 0.2% | 26.6 ± 1.3% | 4.527 ± 0.039% | 6.24 ± 0.86% | 
2 | MDPRKVNELRAFVKMCKQDPSVLHTEEMRFLREWVESMGGKVPPATQKAKSEENTKEEKPDSKKVEEDLKADEPSSEESDLEIDKEGVIEPDTDAPQEMGDENAEITEEMMDQANDKKVAAIEALNDGELQKAIDLFTDAIKLNPRLAILYAKRASVFVKLQKPNAAIRDCDRAIEINPDSAQPYKWRGKAHRLLGHWEEAAHDLALACKLDYDEDASAMLKEVQPRAQKIAEHRRKYERKREEREIKERIERVKKAREEHERAQREEEARRQSGAQYGSFPGGFPGGMPGNFPGGMPGMGGGMPGMAGMPGLNEILSDPEVLAAMQDPEVMVAFQDVAQNPANMSKYQSNPKVMNLISKLSAKFGGQA |  |  |  |  | percentage of EdU-negative [1, 4]: 24.8 ± 1.7%; percentage of EdU-negative [1, 5]: 27.4 ± 0.36%; percentage of EdU-negative [2, 4]: 4.96 ± 0.58%; percentage of EdU-negative [2, 5]: 5.35 ± 0.39%
3 | MPLSLGAEMWGPEAWLLLLLLLASFTGRCPAGELETSDVVTVVLGQDAKLPCFYRGDSGEQVGQVAWARVDAGEGAQELALLHSKYGLHVSPAYEGRVEQPPPPRNPLDGSVLLRNAVQADEGEYECRVSTFPAGSFQARLRLRVLVPPLPSLNPGPALEEGQGLTLAASCTAEGSPAPSVTWDTEVKGTTSSRSFKHSRSAAVTSEFHLVPSRSMNGQPLTCVVSHPGLLQDQRITHILHVSFLAEASVRGLEDQNLWHIGREGAMLKCLSEGQPPPSYNWTRLDGPLPSGVRVDGDTLGFPPLTTEHSGIYVCHVSNEFSSRDSQVTVDVLDPQEDSGKQVDLVSASVVVVGVIAALLFCLLVVVVVLMSRYHRRKAQQMTQKYEEELTLTRENSIRRLHSHHTDPRSQPEESVGLRAEGHPDSLKDNSSCSVMSEEPEGRSYSTLTTVREIETQTELLSPGSGRAEEEEDQDEGIKQAMNHFVQENGTLRAKPTGNGIYINGRGHLV [Q96NY8] | 27.6 ± 2% | 27.8 ± 0.29% | 4.77 ± 0.36% | 5.65 ± 0.22% | 
4 | MAGSPTCLTLIYILWQLTGSAASGPVKELVGSVGGAVTFPLKSKVKQVDSIVWTFNTTPLVTIQPEGGTIIVTQNRNRERVDFPDGGYSLKLSKLKKNDSGIYYVGIYSSSLQQPSTQEYVLHVYEHLSKPKVTMGLQSNKNGTCVTNLTCCMEHGEEDVIYTWKALGQAANESHNGSILPISWRWGESDMTFICVARNPVSRNFSSPILARKLCEGAADDPDSSMVLLCLLLVPLLLSLFVLGLFLWFLKRERQEEYIEEKKRVDICRETPNICPHSGENTEYDTIPHTNRTILKEDPANTVYSTVEIPKKMENPHSLLTMPDTPRLFAYENVI [Q9NQ25] | 27.18 ± 0.048% | 27.7 ± 1.3% | 5 ± 0.45% | 6.3 ± 0.74% | 
5 | Q9UBP4 |  |  |  |  | percentage of EdU-negative [1, 6]: 24.3 ± 2.6%; percentage of EdU-negative [1, 7]: 25.52 ± 0.066%; percentage of EdU-negative [2, 6]: 5.79 ± 1.3%; percentage of EdU-negative [2, 7]: 6.35 ± 0.93%
6 | MLRLYVLVMGVSAFTLQPAAHTGAARSCRFRGRHYKREFRLEGEPVALRCPQVPYWLWASVSPRINLTWHKNDSARTVPGEEETRMWAQDGALWLLPALQEDSGTYVCTTRNASYCDKMSIELRVFENTDAFLPFISYPQILTLSTSGVLVCPDLSEFTRDKTDVKIQWYKDSLLLDKDNEKFLSVRGTTHLLVHDVALEDAGYYRCVLTFAHEGQQYNITRSIELRIKKKKEETIPVIISPLKTISASLGSRLTIPCKVFLGTGTPLTTMLWWTANDTHIESAYPGGRVTEGPRQEYSENNENYIEVPLIFDPVTREDLHMDFKCVVHNTLSFQTLRTTVKEASSTFSWGIVLAPLSLAFLVLGGIWMHRRCKHRTGKADGLTVLWPHHQDFQSYPK | 25.1 ± 1.5% | 30.8 ± 0.31% | 5.09 ± 0.47% | 9.76 ± 1.8% | 
7 | MMSFLLGAILTLLWAPTAQAEVLLQPDFNAEKFSGLWYVVSMASDCRVFLGKKDHLSMSTRAIRPTEEGGLHVHMEFPGADGCNQVDAEYLKVGSEGHFRVPALGYLDVRIVDTDYSSFAVLYIYKELEGALSTMVQLYSRTQDVSPQALKSFQDFYPTLGLPKDMMVMLPQSDACNPESKEAP [Q6UWW0] | 26.2 ± 2.2% | 25.9 ± 0.71% | 5.79 ± 0.094% | 6.89 ± 0.15% | 
8 | MATHHTLWMGLALLGVLGDLQAAPEAQVSVQPNFQQDKFLGRWFSAGLASNSSWLREKKAALSMCKSVVAPATDGGLNLTSTFLRKNQCETRTMLLQPAGSLGSYSYRSPHWGSTYSVSVVETDYDQYALLYSQGSKGPGEDFRMATLYSRTQTPRAELKEKFTAFCKAQGFTEDTIVFLPQTDKCMTEQ | 27.3 ± 2.4% | 25.1 ± 1.9% | 4.95 ± 1.2% | 7.39 ± 0.34% | 
9 | MNWHLPLFLLASVTLPSICSHFNPLSLEELGSNTGIQVFNQIVKSRPHDNIVISPHGIASVLGMLQLGADGRTKKQLAMVMRYGVNGVGKILKKINKAIVSKKNKDIVTVANAVFVKNASEIEVPFVTRNKDVFQCEVRNVNFEDPASACDSINAWVKNETRDMIDNLLSPDLIDGVLTRLVLVNAVYFKGLWKSRFQPENTKKRTFVAADGKSYQVPMLAQLSVFRCGSTSAPNDLWYNFIELPYHGESISMLIALPTESSTPLSAIIPHISTKTIDSWMSIMVPKRVQVILPKFTAVAQTDLKEPLKVLGITDMFDSSKANFAKITTGSENLHVSHILQKAKIEVSEDGTKASAATTAILIARSSPPWFIVDRPFLFFIRHNPTGAVLFMGQINKP |  |  |  |  | percentage of EdU-negative [1, 8]: 26.98 ± 0.12%; percentage of EdU-negative [1, 9]: 27.93 ± 0.17%; percentage of EdU-negative [2, 8]: 4.86 ± 0.67%; percentage of EdU-negative [2, 9]: 9.81 ± 1%
10 | MWTLGRRAVAGLLASPSPAQAQTLTRVPRPAELAPLCGRRGLRTDIDATCTPRRASSNQRGLNQIWNVKKQSVYLMNLRKSGTLGHPGSLDETTYERLAEETLDSLAEFFEDLADKPYTFEDYDVSFGSGVLTVKLGGDLGTYVINKQTPNKQIWLSSPSSGPKRYDWTGKNWVYSHDGVSLHELLAAELTKALKTKLDLSSLAYSGKDA | 25.6 ± 0.72% | 26.7 ± 4% | 4.76 ± 0.24% | 9.96 ± 1% | 
11 | MKFTTLLFLAAVAGALVYAEDASSDSTGADPAQEAGTSKPNEEISGPAEPASPPETTTTAQETSAAAVQGTAKVTSSRQELNPLKSIVEKSILLTEQALAKAGKGMHGGVPGGKQFIENGSEFAQKLLKKFSLLKPWA [Q9GZZ8] | 25.6 ± 1.3% | 24.5 ± 0.39% | 4.93 ± 0.13% | 5.83 ± 0.8% | 
12 | MQPRRQRLPAPWSGPRGPRPTAPLLALLLLLAPVAAPAGSGDPDDPGQPQDAGVPRRLLQQAARAALHFFNFRSGSPSALRVLAEVQEGRAWINPKEGCKVHVVFSTERYNPESLLQEGEGRLGKCSARVFFKNQKPRPTINVTCTRLIEKKKRQQEDYLLYKQMKQLKNPLEIVSIPDNHGHIDPSLRLIWDLAFLGSSYVMWEMTTQVSHYYLAQLTSVRQWKTNDDTIDFDYTVLLHELSTQEIIPCRIHLVWYPGKPLKVKYHCQELQTPEEASGTEEGSAVVPTELSNF | 24.2 ± 1.8% | 28 ± 0.37% | 5.08 ± 0.6% | 4.8 ± 0.36% | 
13 | MRLSVRRVLLAAGCALVLVLAVQLGQQVLECRAVLAGLRSPRGAMRPEQEELVMVGTNHVEYRYGKAMPLIFVGGVPRSGTTLMRAMLDAHPEVRCGEETRIIPRVLAMRQAWSKSGREKLRLDEAGVTDEVLDAAMQAFILEVIAKHGEPARVLCNKDPFTLKSSVYLSRLFPNSKFLLMVRDGRASVHSMITRKVTIAGFDLSSYRDCLTKWNKAIEVMYAQCMEVGKEKCLPVYYEQLVLHPRRSLKLILDFLGIAWSDAVLHHEDLIGKPGGVSLSKIERSTDQVIKPVNLEALSKWTGHIPGDVVRDMAQIAPMLAQLGYDPYANPPNYGNPDPFVINNTQRVLKGDYKTPANLKGYFQVNQNSTSSHLGSS | 26.7 ± 0.75% | 30.1 ± 1.8% | 5.18 ± 0.23% | 36.4 ± 2.8% | 
14 | MTSKPHSDWIPYSVLDDEGRNLRQQKLDRQRALLEQKQKKKRQEPLMVQANADGRPRSRRARQSEEQAPLVESYLSSSGSTSYQVQEADSLASVQLGATRPTAPASAKRTKAAATAGGQGGAARKEKKGKHKGTSGPAALAEDKSEAQGPVQILTVGQSDHAQDAGETAAGGGERPSGQDLRATMQRKGISSSMSFDEDEEDEEENSSSSSQLNSNTRPSSATSRKSVREAASAPSPTAPEQPVDVEVQDLEEFALRPAPQGITIKCRITRDKKGMDRGMYPTYFLHLDREDGKKVFLLAGRKRKKSKTSNYLISVDPTDLSRGGDSYIGKLRSNLMGTKFTVYDNGVNPQKASSSTLESGTLRQELAAVCYETNVLGFKGPRKMSVIVPGMNMVHERVSIRPRNEHETLLARWQNKNTESIIELQNKTPVWNDDTQSYVLNFHGRVTQASVKNFQIIHGNDPDYIVMQFGRVAEDVFTMDYNYPLCALQAFAIALSSFDSKLACE |  |  |  |  | percentage of EdU-negative [1, 10]: 24.8 ± 1.5%; percentage of EdU-negative [1, 11]: 29.6 ± 0.96%; percentage of EdU-negative [2, 10]: 4.99 ± 0.76%; percentage of EdU-negative [2, 11]: 7.63 ± 0.81%
